In US20210380703A1:

B1: 365_G01 (antibody, V domains shown)
VH: EVQLLESGGGLVQPGGSLRLSCAASGFTFDSYGMNWVRQAPGKGLEWVAGINYNSGYKSYADSVKGRFTISRDNSKNTLYLQMNSLRAEDTAVYYCARSANWHDTALDYWGQGTLVTVSS
VL: DIQMTQSPSSLSASVGDRVTITCRASQSILTYVNWYQQKPGKAPKLLIYATTSRASGVPSRFSGSGSGTDFTLTISSLQPEDFATYYCQQSYDSPLTFGGGTKVEIK
B2: 367_A04 (antibody, V domains shown)
VH: EVQLLESGGGLVQPGGSLRLSCAASGFTFSSYSMNWVRQAPGKGLEWVSNINYNSGYKSYADSVKGRFTISRDNSKNTLYLQMNSLRAEDTAVYYCARSANWHDTALDYWGQGTLVTVSS
VL: DIQMTQSPSSLSASVGDRVTITCRASQSIITYLNWYQQKPGKAPKLLIYAATSRASGVPSRFSGSGSGTDFTLTISSLQPEDFATYYCQQSDDSPLTFGGGTKVEIK
B3: 366_G05 (antibody, V domains shown)
VH: EVQLLESGGGLVQPGGSLRLSCAASGFTFDSYGMNWVRQAPGKGLEWVSNINYNGGYTSYADSVKGRFTISRDNSKNTLYLQMNSLRAEDTAVYYCARSANWHDTALDYWGQGTLVTVSS
VL: DIQMTQSPSSLSASVGDRVTITCRASQSIISYVNWYQQKPGKAPKLVIYAATSRASGVPSRFSGSGSGTDFTLTISSLQPEDFATYYCQQSYENPLTFGGGTKVEIK
B4: 365_H03 (antibody, V domains shown)
VH: EVQLLESGGGLVQPGGSLRLSCAASGFTFDDYGMNWVRQAPGKGLEWVAGINYNGGYKSYADSVKGRFTISRDNSKNTLYLQMNSLRAEDTAVYYCARSANWHDTALDYWGQGTLVTVSS
VL: DIQMTQSPSSLSASVGDRVTITCRASQSILSYVNWYQQKPGKAPKLVIYAATSLHSGVPSRFSGSGSGTDFTLTISSLQPEDFATYYCQQSYNNPLTFGGGTKVEIK
B5: 366_F04 (antibody, V domains shown)
VH: EVQLLESGGGLVQPGGSLRLSCAASGFTFSDYGMNWVRQAPGKGLEWVSGINYNGGYTSYADSVKGRFTISRDNSKNTLYLQMNSLRAEDTAVYYCARSANWHDTALDYWGQGTLVTVSS
VL: DIQMTQSPSSLSASVGDRVTITCRASQSILSYVNWYQQKPGKAPKLVIYATTSRHSGVPSRFSGSGSGTDFTLTISSLQPEDFATYYCQQSYESPLTFGGGTKVEIK
B6: 366_F05 (antibody, V domains shown)
VH: EVQLLESGGGLVQPGGSLRLSCAASGFTFSSYSMNWVRQAPGKGLEWVANINYNSGYKSYADSVKGRFTISRDNSKNTLYLQMNSLRAEDTAVYYCARSANWHDTHLDYWGQGTLVTVSS
VL: DIQMTQSPSSLSASVGDRVTITCRASQSILTYLNWYQQKPGKAPKLLIYAATSRASGVPSRFSGSGSGTDFTLTISSLQPEDFATYYCQQSDNTPLTFGGGTKVEIK
B7: 365_G11 (antibody, V domains shown)
VH: EVQLLESGGGLVQPGGSLRLSCAASGFTFSSYGMNWVRQAPGKGLEWVANINYNGGYTGYADSVKGRFTISRDNSKNTLYLQMNSLRAEDTAVYYCARSANWHDTALDYWGQGTLVTVSS
VL: DIQMTQSPSSLSASVGDRVTITCRASQSIITYVNWYQQKPGKAPKLLIYAVTSRHSGVPSRFSGSGSGTDFTLTISSLQPEDFATYYCQQSYNSPLTFGGGTKVEIK
B8: 367_B03 (antibody, V domains shown)
VH: EVQLLESGGGLVQPGGSLRLSCAASGFTFSSYGMNWVRQAPGKGLEWVAGINYNGGYKSYADSVKGRFTISRDNSKNTLYLQMNSLRAEDTAVYYCARSANWHDTALDYWGQGTLVTVSS
VL: DIQMTQSPSSLSASVGDRVTITCRASQSILTYLNWYQQKPGKAPKLLIYAATSLASGVPSRFSGSGSGTDFTLTISSLQPEDFATYYCQQSYNLPLTFGGGTKVEIK
B9: 366_D04 (antibody, V domains shown)
VH: EVQLLESGGGLVQPGGSLRLSCAASGFTFSSYSMNWVRQAPGKGLEWVSGINYNGGYTSYADSVKGRFTISRDNSKNTLYLQMNSLRAEDTAVYYCARSANWHDTALDYWGQGTLVTVSS
VL: DIQMTQSPSSLSASVGDRVTITCRASQSISSYVNWYQQKPGKAPKLLIYATTSRASGVPSRFSGSGSGTDFTLTISSLQPEDFATYYCQQSYETPLTFGGGTKVEIK
B10: 366_B08 (antibody, V domains shown)
VH: EVQLLESGGGLVQPGGSLRLSCAASGFTFDSYGMNWVRQAPGKGLEWVSNINYNGGYKGYADSVKGRFTISRDNSKNTLYLQMNSLRAEDTAVYYCARSANWHDTHLDYWGQGTLVTVSS
VL: DIQMTQSPSSLSASVGDRVTITCRASQSIVSYLNWYQQKPGKAPKLLIYAATSRHSGVPSRFSGSGSGTDFTLTISSLQPEDFATYYCQQSYDNPLTFGGGTKVEIK
B11: 366_H08 (antibody, V domains shown)
VH: EVQLLESGGGLVQPGGSLRLSCAASGFTFSDYGMNWVRQAPGKGLEWVASINYNSGYTSYADSVKGRFTISRDNSKNTLYLQMNSLRAEDTAVYYCARSANWHDTHLDYWGQGTLVTVSS
VL: DIQMTQSPSSLSASVGDRVTITCRASQSILSYVNWYQQKPGKAPKLLIYAATSRHSGVPSRFSGSGSGTDFTLTISSLQPEDFATYYCQQSYNNPLTFGGGTKVEIK
B12: 366_E10 (antibody, V domains shown)
VH: EVQLLESGGGLVQPGGSLRLSCAASGFTFDSYGMNWVRQAPGKGLEWVSGINYNGGYKGYADSVKGRFTISRDNSKNTLYLQMNSLRAEDTAVYYCARSANWHDTHLDYWGQGTLVTVSS
VL: DIQMTQSPSSLSASVGDRVTITCRASQSILSYVNWYQQKPGKAPKLVIYAATSRHSGVPSRFSGSGSGTDFTLTISSLQPEDFATYYCQQSYSLPLTFGGGTKVEIK
B13: 366_G04 (antibody, V domains shown)
VH: EVQLLESGGGLVQPGGSLRLSCAASGFTFSSYSMNWVRQAPGKGLEWVSGINYNSGYTSYADSVKGRFTISRDNSKNTLYLQMNSLRAEDTAVYYCARSANWHDTALDYWGQGTLVTVSS
VL: DIQMTQSPSSLSASVGDRVTITCRASQSIITYLNWYQQKPGKAPKLLIYAATSRASGVPSRFSGSGSGTDFTLTISSLQPEDFATYYCQQSDDTPLTFGGGTKVEIK
B14: 366_H07 (antibody, V domains shown)
VH: EVQLLESGGGLVQPGGSLRLSCAASGFTFSSYGMHWVRQAPGKGLEWVSGINYNGGYTSYADSVKGRFTISRDNSKNTLYLQMNSLRAEDTAVYYCARSANWHDTALDYWGQGTLVTVSS
VL: DIQMTQSPSSLSASVGDRVTITCRASQSIISYVNWYQQKPGKAPKLVIYAVTSRASGVPSRFSGSGSGTDFTLTISSLQPEDFATYYCQQSYENPLTFGGGTKVEIK
B15: 366_B10 (antibody, V domains shown)
VH: EVQLLESGGGLVQPGGSLRLSCAASGFTFSSYGMNWVRQAPGKGLEWVSGINYNSGYTSYADSVKGRFTISRDNSKNTLYLQMNSLRAEDTAVYYCARSANWHDTALDYWGQGTLVTVSS
VL: DIQMTQSPSSLSASVGDRVTITCRASQSIISYLNWYQQKPGKAPKLLIYAATSRASGVPSRFSGSGSGTDFTLTISSLQPEDFATYYCQQSYDNPLTFGGGTKVEIK
B16: 366_B12 (antibody, V domains shown)
VH: EVQLLESGGGLVQPGGSLRLSCAASGFTFSSYSMNWVRQAPGKGLEWVAGINYNSGYKGYADSVKGRFTISRDNSKNTLYLQMNSLRAEDTAVYYCARSANWHDTALDYWGQGTLVTVSS
VL: DIQMTQSPSSLSASVGDRVTITCRASQSILTYVNWYQQKPGKAPKLLIYAATSRASGVPSRFSGSGSGTDFTLTISSLQPEDFATYYCQQSYDNPLTFGGGTKVEIK
B17: 367_B07 (antibody, V domains shown)
VH: EVQLLESGGGLVQPGGSLRLSCAASGFTFSDYSMNWVRQAPGKGLEWVAGINYNSGYTGYADSVKGRFTISRDNSKNTLYLQMNSLRAEDTAVYYCARSANWHDTHLDYWGQGTLVTVSS
VL: DIQMTQSPSSLSASVGDRVTITCRASQSIISYVNWYQQKPGKAPKLLIYAATSLASGVPSRFSGSGSGTDFTLTISSLQPEDFATYYCQQSYNLPLTFGGGTKVEIK
B18: 366_F07 (antibody, V domains shown)
VH: EVQLLESGGGLVQPGGSLRLSCAASGFTFSDYSMNWVRQAPGKGLEWVAGINYNSGYTSYADSVKGRFTISRDNSKNTLYLQMNSLRAEDTAVYYCARSANWHDTHLDYWGQGTLVTVSS
VL: DIQMTQSPSSLSASVGDRVTITCRASQSIITYLNWYQQKPGKAPKLLIYAATSRASGVPSRFSGSGSGTDFTLTISSLQPEDFATYYCQQSYETPLTFGGGTKVEIK
B19: 366_A07 (antibody, V domains shown)
VH: EVQLLESGGGLVQPGGSLRLSCAASGFTFSSYGMHWVRQAPGKGLEWVASINYNGGYTGYADSVKGRFTISRDNSKNTLYLQMNSLRAEDTAVYYCARSANWHDTALDYWGQGTLVTVSS
VL: DIQMTQSPSSLSASVGDRVTITCRASQSIVSYVNWYQQKPGKAPKLVIYAATSRHSGVPSRFSGSGSGTDFTLTISSLQPEDFATYYCQQSYESPLTFGGGTKVEIK
B20: 365_H11 (antibody, V domains shown)
VH: EVQLLESGGGLVQPGGSLRLSCAASGFTFSSYSMNWVRQAPGKGLEWVSGINYNSGYTGYADSVKGRFTISRDNSKNTLYLQMNSLRAEDTAVYYCARSANWHDTALDYWGQGTLVTVSS
VL: DIQMTQSPSSLSASVGDRVTITCRASQSILTYLNWYQQKPGKAPKLLIYAATSRASGVPSRFSGSGSGTDFTLTISSLQPEDFATYYCQQSYDSPLTFGGGTKVEIK
B21: 367_A05 (antibody, V domains shown)
VH: EVQLLESGGGLVQPGGSLRLSCAASGFTFSDYGMNWVRQAPGKGLEWVSSINYNGGYKGYADSVKGRFTISRDNSKNTLYLQMNSLRAEDTAVYYCARSANWHDTALDYWGQGTLVTVSS
VL: DIQMTQSPSSLSASVGDRVTITCRASQSILSYLNWYQQKPGKAPKLVIYAVTSRASGVPSRFSGSGSGTDFTLTISSLQPEDFATYYCQQSYDSPLTFGGGTKVEIK
B22: 366_H06 (antibody, V domains shown)
VH: EVQLLESGGGLVQPGGSLRLSCAASGFTFSSYGMNWVRQAPGKGLEWVSSINYNGGYTGYADSVKGRFTISRDNSKNTLYLQMNSLRAEDTAVYYCARSANWHDTALDYWGQGTLVTVSS
VL: DIQMTQSPSSLSASVGDRVTITCRASQSILSYLNWYQQKPGKAPKLLIYATTSRASGVPSRFSGSGSGTDFTLTISSLQPEDFATYYCQQSYDTPLTFGGGTKVEIK

molecular target: Human Fc (human); test: ELISA; negative control

Going from B1 to B2, the optical density falls from 0.39 OD to 0.267 OD.

Compared with B3, B4 is higher in optical density: 0.28 OD for the first, 0.366 OD for the second.

Compared with B5, B6 is lower in optical density: 0.281 OD for the first, 0.279 OD for the second.

Compared with B7, B8 is higher in optical density: 0.278 OD for the first, 0.318 OD for the second.

Compared with B9, B10 is higher in optical density: 0.338 OD for the first, 0.403 OD for the second.

Going from B11 to B12, the optical density falls from 0.417 OD to 0.271 OD.

Compared with B13, B14 is lower in optical density: 0.31 OD for the first, 0.285 OD for the second.

First: B15
Second: B16
The optical density of the first is higher: 0.424 OD for the first, 0.311 OD for the second.

Compared with B17, B18 is higher in optical density: 0.236 OD for the first, 0.353 OD for the second.

First: B19
Second: B20
The optical density of the first is lower: 0.309 OD for the first, 0.375 OD for the second.

Compared with B21, B22 is higher in optical density: 0.269 OD for the first, 0.285 OD for the second.
